# Assay results taken from patent US20210030804A1.
# Target: CD19 on Nalm6 leukemia cells (UniProt P15391)
# Experiment: cell-based or functional assay
# Sequence of UniProt P15391 (P15391 20-556 limits assumed): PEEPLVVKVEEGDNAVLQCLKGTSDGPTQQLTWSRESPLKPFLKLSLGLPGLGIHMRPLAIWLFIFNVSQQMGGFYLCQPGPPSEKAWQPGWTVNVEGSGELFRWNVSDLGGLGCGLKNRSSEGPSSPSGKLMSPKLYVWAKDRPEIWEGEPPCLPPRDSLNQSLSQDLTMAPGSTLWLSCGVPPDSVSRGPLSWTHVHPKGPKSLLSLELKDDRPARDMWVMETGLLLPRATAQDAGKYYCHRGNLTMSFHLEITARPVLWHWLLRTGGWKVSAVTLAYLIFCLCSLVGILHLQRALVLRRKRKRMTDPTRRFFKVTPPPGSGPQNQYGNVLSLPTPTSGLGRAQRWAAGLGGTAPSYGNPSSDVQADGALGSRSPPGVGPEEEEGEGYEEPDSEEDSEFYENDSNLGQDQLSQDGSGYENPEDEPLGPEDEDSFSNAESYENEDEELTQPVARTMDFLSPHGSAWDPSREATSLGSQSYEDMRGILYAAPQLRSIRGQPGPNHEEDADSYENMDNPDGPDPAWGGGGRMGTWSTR
binder,measurement,value
"CD19 CAR (receptor, from a related filing) EVKLQQSGAELVRPGSSVKISCKASGYAFSSYWMNWVKQRPGQGLEWIGQIYPGDGDTNYNGKFKGQATLTADKSSSTAYMQLSGLTSEDSAVYFCARKTISSVVDFYFDYWGQGTTVTVSSGGGGSGGGGSGGGGSDIELTQSPKFMSTSVGDRVSVTCKASQNVGTNVAWYQQKPGQSPKPLIYSATYRNSGVPDRFTGSGSGTDFTLTITNVQSKDLADYFCQQYNRYPYTSGGGTKLEIKRAAAIEVMYPPPYLDNEKSNGTIIHVKGKHLCPSPLFPGPSKPFWVLVVVGGVLACYSLLVTVAFIIFWVRSKRSRLLHSDYMNMTPRRPGPTRKHYQPYAPPRDFAAYRSRVKFSRSADAPAYQQGQNQLYNELNLGRREEYDVLDKRRGRDPEMGGKPRRKNPQEGLYNELQKDKMAEAYSEIGMKGERRRGKGHDGLYQGLSTATKDTYDALHMQALPPR","Tumor Cell Killing Percentage (Nalm6 killed, 22 h co-culture, FACS with counting beads); E/T 0.024; CD19 level high",32%
same,"Tumor Cell Killing Percentage (Nalm6 killed, 22 h co-culture, FACS with counting beads); E/T 0.024; CD19 level low",16.3%
same,"Tumor Cell Killing Percentage (Nalm6 killed, 22 h co-culture, FACS with counting beads); E/T 0.024; CD19 level medium",17.2%
same,"Tumor Cell Killing Percentage (Nalm6 killed, 22 h co-culture, FACS with counting beads); E/T 0.024; CD19 level very low",0%
same,"Tumor Cell Killing Percentage (Nalm6 killed, 22 h co-culture, FACS with counting beads); E/T 0.12; CD19 level high",63.4%
same,"Tumor Cell Killing Percentage (Nalm6 killed, 22 h co-culture, FACS with counting beads); E/T 0.12; CD19 level low",53.3%
same,"Tumor Cell Killing Percentage (Nalm6 killed, 22 h co-culture, FACS with counting beads); E/T 0.12; CD19 level medium",63.6%
same,"Tumor Cell Killing Percentage (Nalm6 killed, 22 h co-culture, FACS with counting beads); E/T 0.12; CD19 level very low",0.4%
same,"Tumor Cell Killing Percentage (Nalm6 killed, 22 h co-culture, FACS with counting beads); E/T 0.6; CD19 level high",84.4%
same,"Tumor Cell Killing Percentage (Nalm6 killed, 22 h co-culture, FACS with counting beads); E/T 0.6; CD19 level low",77.2%
same,"Tumor Cell Killing Percentage (Nalm6 killed, 22 h co-culture, FACS with counting beads); E/T 0.6; CD19 level medium",79.4%
same,"Tumor Cell Killing Percentage (Nalm6 killed, 22 h co-culture, FACS with counting beads); E/T 0.6; CD19 level very low",8.37%
